This note sets out measurements from IntAct's records for PubMed 9528767.

B1: Small nuclear ribonucleoprotein E (Saccharomyces cerevisiae), Q12330 (parent)
chain: MSNKVKTKAMVPPINCIFNFLQQQTPVTIWLFEQIGIRIKGKIVGFDEFMNVVIDEAVEIPVNSADGKEDVEKGTPLGKILLKGDNITLITSAD
B2: Small nuclear ribonucleoprotein E (Saccharomyces cerevisiae), Q12330 (parent)
chain: B1 chain
partner: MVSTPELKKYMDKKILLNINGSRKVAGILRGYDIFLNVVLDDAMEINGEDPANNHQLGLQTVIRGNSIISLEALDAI

In the first assay the parent is B1. Conditions: with ruxf_yeast SMX3, P54999.
Sequence of ruxf_yeast SMX3, P54999 (P54999 whole entry): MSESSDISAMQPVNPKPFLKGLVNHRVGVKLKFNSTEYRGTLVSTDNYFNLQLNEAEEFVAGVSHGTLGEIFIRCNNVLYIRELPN
In the case of I54N, the “effect of a mutation on the interaction” value was “disrupting interaction strength”.

For the variant N3T, the “effect of a mutation on the interaction” value is given as “increasing interaction strength”.

Regarding M10V, the “effect of a mutation on the interaction” value is “with no effect”. The same measure, in the same setting: the result for G41D reads “disrupting interaction strength”; that for V27E, “disrupting interaction strength”; that for D47H, “disrupting interaction strength”. For the variant D47A, the “effect of a mutation on the interaction” value is listed as “disrupting interaction strength”. Consider E59A;N63D, for which the “effect of a mutation on the interaction” value is “with no effect”. The same measure, in the same setting: to K6E belongs “with no effect”; to M50A, “decreasing interaction strength”. On to I80F, for which the “effect of a mutation on the interaction” value was “decreasing interaction strength”. Still for that read-out and setting: the result for G45V reads “with no effect”; that for P76S, “with no effect”; that for L81P, “disrupting interaction strength”. Regarding N51A, the “effect of a mutation on the interaction” value is recorded as “decreasing interaction strength”. For the variant Q22L, the “effect of a mutation on the interaction” value is recorded as “disrupting interaction strength”. Still for that read-out and setting: the result for L31S reads “with no effect”; that for I90R, “decreasing interaction strength”; that for I29K, “disrupting interaction strength”.

The next assay covers variants of B2. The note with it: with ruxg_yeast SMX2, P40204.
On to V27E, for which the “effect of a mutation on the interaction” value is “disrupting interaction strength”. Take N3T: the “effect of a mutation on the interaction” value is recorded as “with no effect”. Same read-out and setting: the result for K6E reads “with no effect”; that for I80F, “with no effect”; that for K83V, “with no effect”. On to D47H, for which the “effect of a mutation on the interaction” value was “decreasing interaction strength”. On to D47A, for which the “effect of a mutation on the interaction” value is recorded as “decreasing interaction strength”. As for E59A;N63D, the “effect of a mutation on the interaction” value is “with no effect”. On the same count and under the same terms, to G84A belongs “with no effect”. With L81P, the “effect of a mutation on the interaction” value is “with no effect”.

As for G41D, the “effect of a mutation on the interaction” value is recorded as “disrupting interaction strength”.

As for N51A, the “effect of a mutation on the interaction” value was “with no effect”. Regarding M10V, the “effect of a mutation on the interaction” value is given as “with no effect”. On to G45V, for which the “effect of a mutation on the interaction” value was “with no effect”. Still for that read-out and setting: the result for L31S reads “with no effect”. On the same count and under the same terms, to I54N belongs “disrupting interaction strength”; to N86A, “decreasing interaction strength”; to I29K, “disrupting interaction strength”.

With M50A, the “effect of a mutation on the interaction” value is given as “decreasing interaction strength”. Same read-out and setting: the result for P76S reads “with no effect”. The same measure, in the same setting: to I90R belongs “disrupting interaction strength”.

In the next assay the parent is B2. Conditions: with ruxg_yeast SMX2, P40204. This is another data set of the same source.
For Q22L, the “effect of a mutation on the interaction” value is reported as “disrupting interaction strength”.
